The DeepSol protein solubility set

test: soluble on expression in E. coli; label from the status in PepcDB or PDB records

Sequence | soluble on expression in E. coli
MGSDKIHHHHHHMKQIPLAERMRPKTLADYVGQQHLIGSGAVLRQMIEQGQTPSMILWGPPGVGKTTLAEIIAHEVDAPFYTLSAVSSGVKEVREVIADIESNRGNLFDKGGRAILFIDEIHRFSKSQQDSLLAAVERGIVTLIGATTENPSFEVIRPLLSRCQVYVLKPQSDEDLLLLAHRAIDRDELLAAKHPVLEETEALLLYAGGDARKLLNILDLLATSEVEDRLVITNEKIRQRLQENPAAFDKGGELHYDIASAFIKSIRGSDPDAAIYWLARLIDGGEEPSFIARRLIISASEDIGLANPNAMLIAMACAEALDRIGWPEGRIPLAEATIYLATSEKSNSAYLAIDSALEYVRQSGNLPVPLHLRNAPTRLMADLDYGKGYKYSHDFPEHFVSQQYLPDKAANTSFWTPQMHTVHEAKLGERMKRWWKREKSQKDTAE | not soluble
LQFAYKDPEKNWNRNSVKGLVASLINVKDNSTATALEVVAGERLYNVVVDTEVTAKKLLEKGELKRRYTIIPLNKISARCIAPETLRVAQNLVGPDNVHVALSLVDYKPELQKGMEFVFGTTFVCNNMDNAKKVAFDKRIMTRTVTLGGDVFDPHGTLSGG | soluble
MTPPADETRLFECVTCGGVGIGDNRPTCCGEPMAATETGDTAVSEPSLETLLKTVFDMSGTELDICLCVMEGGELTVAALAEQIGYDRSVVARHLNHLAAFGVVEKRRRIRPEGGHVYVYTPQPPEVVRERLREEFLSWVRLATAQLDDLQREKVEAIADAKTDERQWTVFQEQ | not soluble
MSLQLDLLPPQDRGQVHSVFVVVPRFNLTTLITMIETMRIGNYLSSERLFSWEVTSFDGLNLGASNGVRVHLDVEPDQTAPADQVFVLASWGGEHYQNKALASWLRKRARQGERICAVELGCYLVARAGLMDGKEATTHWSWINGFQEKFDQISVVEQLFTIDGRILTCAGGMAGVDLMLRLIEQSHGAGFSGEIADQMLHNEGHHHHHH | soluble
VTSPLLPQIGVDPPERGDAARNRRLLLDAAALLVAERGVDAVTMDAVACRAGVGKGTVFRRFGSRSGLMHALLDHTERELQQSFMFGPPPLGPGADPIDRLIAYGHARIAIVEVQGEVQRAAENSVEFRFAAPARAVSVRHVVSLLRAAGVRCDHELLACSLLAPLEATLVLHELRDLGMSVERLGAAWEDLIRRVTRC | not soluble
MNKSHLGTADNPQEVVTAHDIGRLVDVVNVGKGFLRYVGPIHGKDGMFCGIELLEPNGKHDGTFQGVSYFIATPYHGIFAPIFRVTLDAEELPKPPPPNPSNRLSRSALPALQLRNPLTQERKPEEDVMSTSVYVSSSTKPIAIPTKQCRPPETDPMQMSMFSDMMDGSMFSNGSWSDIADSMITSNCTFTVRKGLPIDDDGDLMSVPMVQSVFNIDREALRREEQLQSSIVLGESRIGVEHLPIIEDENELETPLVETRTMPLPNDLNANFSNKNSTTTFVEPETPKVEIRENGNLDNSIETPPQQSPSGSSMVSHESDSSSKKDDTKSDKSPTKKSQKMEEKPVVKKKEEPAAPPPPPKFPVKQKAPSKHQLMMEQLKASIEAEKTKPKKEIKSRVSLLPPPAPKAPQKENKEGGEMTETPRRTITKTPLKTVNAKAKTSPTPPVERQKKERKPLYVAPPAKERVEKEKKIPSKPVVSPPTTAEKKPVVSSIPSTSSASKGPFPTSSFAGGKLQGPRKTSSSSTTTSAKKQKNPPIDEKEKLSRLQHSTHAFEATLIVMNRINEDNERKLGNISEQYEKKVSELGDLKKMLDEARKKFEEDVEQMKNSNQQVIRNHANAVESLQKTHETQIAEKNKEFERNFEEERARREAEVCAMNNRHQKVVACLDEKISEAEKQCEQLNVDKKVLQAALANDCDHRNQMLTKEISSLQTALEMKSAEMKELRQKNQNLSLQVDEIPLKELEISKWKHKSNEYKQMLDQKINGEKILVQQIEDLRRKQIHDEEEKEAMKRSFDLMQFKYENGDDPNVTSVMSAPMESRFSTPTKVQFRSRSSASGSRPISMATSNGGDQRLSTSSHHDDSMNRSTISMYTSHIRLPENHADDVIYAPDEIISSRSGSISQRLAISIENDGEPTIKSESSRIGNTSDSGIGLVM | not soluble
MNSVGFYGKLAGRGDFVSRGLPNTFVEPWDAWLASGMRASQDELGAAWLDAYLTSPLWRFAIAPGLLGGEAVTGVVMPSIDRVGRYFPLTVACLLPANADLGGLVGGDDGWFEQVESLLLSTLEPEAEVEAFEQAVAQLPAPPCGPRIEQSLISGNLLRSEAVTPAQRLAALAQHACDGASHWWGRGSARISAGLMRYQGLPPAPAFGRFLTGEGEVIPLFPGIPG | soluble
SLIHIAIVEDENKDRELLKEYLDRFQAEKGEPLFVHVYPDGEEFLESFSSGKFDILLLDIHMQYMNGMATAQEIRKSDENVLIIFITNLVQYAVQGYSVRAFDFIVKPVEYSVFAQKLYRATQRLNRTEG | soluble
MDEEDPINPCFQTISMGGGYVSGEIYRSDFEINDDARCIITTQSSAKAYKTVDGKTSEQHTNITLGKNSILEYISDNVIVYEDGKFAQFNNFKMDSSATLIYTECFGPGSPHGSAYQYEKMYLNTKIYYDDKLVLFDNLKFQPRKNDESAFGIMDGYHYCGTMIVINQQVIEDDVIKIRDLVKEKYPDMDMIFGVSRMDIPGLGLRVLANTYYHVEKINAVAHDYFRRKLFNKKPLILRKPLEHHHHHH | not soluble
MAAERVFISPAKYVQGKNVITKIANYLEGIGNKTVVIADEIVWKIAGHTIVNELKKGNIAAEEVVFSGEASRNEVERIANIARKAEAAIVIGVGGGKTLDTAKAVADELDAYIVIVPTAASTDAPTSALSVIYSDDGVFESYRFYKKNPDLVLVDTKIIANAPPRLLASGIADALATWVEARSVIKSGGKTMAGGIPTIAAEAIAEKCEQTLFKYGKLAYESVKAKVVTPALEAVVEANTLLSGLGFESGGLAAAHAIHNGFTALEGEIHHLTHGEKVAFGTLVQLALEEHSQQEIERYIELYLCLDLPVTLEDIKLKDASREDILKVAKAATAEGETIHNAFNVTADDVADAIFAADQYAKAYKEKHRK | soluble
ELTLRIAYNLFTQRPKEEYDDFARWITMTGPGKGSDVYKMNGAGEMLVFSAADFEDFLEPRPDLMPAMEEELKKVVALLVEHRWPFRLHATYDESISRFLAVFEAVDREIPFRGLRWFFDHAETISNRNLERVRRLGGGIAIQDRMAFQGEYFVARYGAEAAKRTPPIARMLAMGIPVGAGTDATRVSSYNPWLSLYWLVSGKTVGGLPLYDDANRLDRTAALRLYTEGSSWFSGDNGSKGALIAGRHADLAVLSADYFAVPEARIKDIESVLTIMGGKIVHASDEFAPLAPPLPPVSPDWSPVASYGGYHGNAAVSTGLRREPCVCHSHSPAWSGPDPRFWGIGCDCFA | not soluble
MGSDKIHHHHHHVTEAQTDPKYYDVVEATWPCLRCEKLGDITLRVGAGGGSRVSAATCDALVSDAQIAQAEAAMQDFDQPRLFMIRDGQDALDGQLERLGYAVMDPVALWTVAPSMLTDVEIPRVTTFCLWEPLAIQREIWATGGIGPERLAIMERATRPKTSILGRWDDKPAGAAFVGMHEGIAMLHALEILPHQRRKGMGVWMMRQAAYWAAEQGATELAVLCTRANAGANALYARLGMQQAGGYHYRIKR | not soluble
MGSDKIHHHHHHMLEMKATGKSKGQWMFYRNFDDTVDYLSDHTRILSYNPFCHKVEPLDRDEAYRWHFRVTDPQNNPFDVIFNIQQETEILVDLPDEVASMDPEEMSDEMIRQFTVGRKITWRPLAQDKTFTMPEKYLFEGQVTADMLIVPVQQEQTRVDFDLWVNVAFLLYPAFRIVPEKVVRTMVSTGMSLIMQTATNHMFQKISKEFGKIRKL | not soluble
RGIPQITGPTTVNGLERGSLTVQCVYRSGWETYLKWWCRGAIWRDCKILVKTSGSEQEVKRDRVSIKDNQKNRTFTVTMEDLMKTDADTYWCGIEKTGNDLGVTVQVTIDPAPVTQEETSSSPT | soluble
AIAVEVESDSVAERDRSSFLAGHDAIRLAKSCVDSPPERWYAALYQVYADLTKLRCWSNVEVVYSDSATFPTGLLGPLFEEDSMVQELHSAQCILGSERACFHVRCCIVGSPPSGRAINALSPQSETRTEERIITSRREPEVVIAVPMHAMLKLSNLDQALRMSSHIEGIVKNRHVADSSASTHSTDRQAGSRKSSVIFGFVDEDTTTAYYRIREGACESNDRREFSTDDIASCLAQERT | soluble
MKSMVEMQREVDEYIGQFKTGYFSPLANLARLTEEVGELAREINHTYGEKKKKDSEEANTIKAELGDNLFVLLCLANSMGIDMTESFNETMEKFNTRDKNRFERKLEHHHHHH | soluble
MNDVPHRPQVKTRKALTPLLEIRNLTKSFDGQHAVDDVSLTIYKGEIFALLGASGCGKSTLLRMLAGFEPPSSGQIMLDGVDLAHVPPYQRPINMMFQSYALFPHMTVEQNIAFGLKQDKLPKAEITSRVNEMLGLVHMQEFAKRKPHQLSGGQRQRVALARSLAKRPKLLLLDEPMGALDKKLRDRMQLEVVDILERVGVTCVMVTHDQEEAMTMAGRIAIMNRGKFVQIGEPEEIYEHPTTRYSAEFIGSVNVFEGLLKAREEDGLVIDAPGLVHPLKVDADASVVDNVPVYVALRPEKIMLCESPPADGYNFAVGEVAHIAYLGDLSIYHVRLKSGQMISAQLQNAHRYRKGLPTWGDEVRLCWEADSCVVLTV | not soluble
MSYFKNAFNQKSLIDDSSVYLEPCSSSNFIELKRMHYNEENTKKTWDIIKSLDSVAVLLYEKESDCFVIVKQFRPAIYARRFHFKCDQDQTIDGYTYELCAGLVDKANKSLEEIACEEALEECGYQISPKNLETIGQFYSATGLSGSLQTLYYAEVHKNLKVSKGGGIDTERIEVLFLERSKALDFIMDFQYAKTTGLSLAILWHLKKFKNV | not soluble
PKPPIDLVVTETTATSVTLTWDSGNSEPVTYYGIQYRAAGTEGPFQEVDGVATTRYSIGGLSPFSEYAFRVLAVNSIGRGPPSEAVRARTGEQ | soluble
MPGRFELKPTLAKIWHAPDNFRIMEPLPPMHRRGIIIAAIVLVIGFLLPASETSDSPVVTREAQLDLQSQSQPPTEAQLQAQLVAPQNDPDQVAPVAPEPIQEGQPEEQNQPQTQPFQQDSGIGQQWRSYRVESGKTLAQLFRDHGLPPTDVYAMAQVEGAGKPLSNLKNGQMIKIRQNASGVVTGLTIDGDNGQQVLFTRQPDGSFIRAQ | not soluble
MGSDKIHHHHHHMIETKFKQTELCRIPEDWDIGTFADFLITFSAGATPYRGIPDNFVGTIPWISSGELNYCEIENTREHISSDAQKNTHLTLHKPGTFLIAITGLEAAGTRGRCAFVKTPATTNQSCLAINSTDKMTVKYLFWFYRQWSDFLAFNFSQGSKQQSFTAEIVKRLPLYAPKYKEQEKIAEALSDVDKLIRELDTLIEKKRAVMQGTMQELLTAHRRLPGFVHPWRNTLVEKCCKITTGESNTRDQIESGIYPFYIRSATVMRSNSYIFDCEGVITIGDGQIGKVFHYVNGKFDLHQRCYLMYDFDDIDVKFFYFLFSFFFYNRVIALSAKATVDSVRRNMIAKMKINIPSTMQEQKAIANILSDMNDGIEAIEAKRDKYIAVRQGMMQQLLTGKIRLI | not soluble
MEIIYPPLVEEGLKYYLETTQQSLDKSTFYRSMVERGIITETGLPTQQAIENGLVKDYYEDQGLSFDDFLRIYPIFEEYDEELFQCIDGYWEIPVDMKENLASQLESGELTFEDAQQIQAYLEDR | not soluble
MKLSVYVASAFSKDHKGGNKAGVVFIENSLTTTQKMAIAKQLGYAETAFISESEIADYKFEYFTPKEEVDLCGHATIGSFAILMHLNKLFRNRYTIETNSGVLTITIKDDSIFMEQNNPIFYDVVSPNEFIDCFDMKAIDNKYPIQIVSTGLKDILIPIKSETRLHALQPSFEKIKEISKYYNVVGMHLYTFNDDRIICRNFAPLYDINEEAATGTSNGALACYLHEQHNLQKEVYVFEQGYSLQSPSEILVTLATNSKNEIEKVYVGGKGYYCETKCLNVENME | not soluble
